# Source: patent publication US20240254222A1 (Bayer, published 2024)
# T1: Human Semaphorin3A-Sema Domain, TPP-19068 (human, UniProt Q14563 21-569)
# T1 construct: produced inhouse in HEK293-6E; also called human monovalent Sema3A domain
# T1 sequence: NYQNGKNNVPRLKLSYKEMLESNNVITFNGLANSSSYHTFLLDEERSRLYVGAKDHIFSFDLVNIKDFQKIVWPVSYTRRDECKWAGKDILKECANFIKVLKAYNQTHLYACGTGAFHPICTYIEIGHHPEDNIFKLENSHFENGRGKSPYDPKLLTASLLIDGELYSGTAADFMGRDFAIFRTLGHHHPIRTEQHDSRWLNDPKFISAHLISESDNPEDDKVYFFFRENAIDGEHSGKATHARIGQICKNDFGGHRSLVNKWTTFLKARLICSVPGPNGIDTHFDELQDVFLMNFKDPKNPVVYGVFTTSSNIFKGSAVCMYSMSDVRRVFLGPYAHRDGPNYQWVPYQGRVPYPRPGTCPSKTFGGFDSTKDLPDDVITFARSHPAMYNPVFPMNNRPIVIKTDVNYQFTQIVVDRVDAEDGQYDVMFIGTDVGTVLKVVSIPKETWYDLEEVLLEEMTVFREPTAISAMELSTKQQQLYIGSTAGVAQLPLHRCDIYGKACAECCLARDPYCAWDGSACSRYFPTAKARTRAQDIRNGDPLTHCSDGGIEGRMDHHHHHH
# How the values were obtained:
# [1] = target: Human Semaphorin3A-Fc (R&D Systems), TPP-13211 (human); experiment: cell-based or functional assay
# [2] = target: Human Semaphorin3A-Fc (R&D Systems), TPP-13211 (human); experiment: cell-based or functional assay; remark: listed apart in the source
# [3] = target: T1, Human Semaphorin3A-Sema Domain, …; experiment: SPR, captured antibody, Sema3A domain analyte
# Experimental: (§1) To assess the binding kinetics and affinity of anti-Sema3A antibodies as well as their species cross-reactivity profile, binding assays were conducted using surface plasmon resonance (SPR). Binding assays were performed on a Biacore T200 instrument or on a Biacore 8K+ instrument (Cytiva) at 25° C. using assay buffer HBS P+, 300 mM NaCl, 0.75 mM CaCl₂, 2.5 mM MgCl₂, 1 mg/ml BSA, 0.05% NaN₃. Antibodies were captured either via anti-human Fc IgGs (“Human antibody capture kit”, Order No. BR100839, Cytiva) or in case of Fc-tagged analytes by anti-human Fab IgGs (“Human Fab capture kit”, Order No. 28958325, Cytiva) covalently amine coupled to a Series S CM5 sensor chip (Cytiva). The amine coupling was carried out according to the manufacturer's instructions using 1-ethyl-3-(3-dimethylaminopropyl) carbodiimide hydrochloride (EDC), N-hydroxysuccinimide (NHS) and ethanolamine HCl, pH 8.5 (“Amine Coupling Kit” BR-1000-50, Cytiva.). For phage display hits Fc-tagged human and mouse Sema3A was used as analytes in a concentration range from 1.56-200 nM. Human, mouse, cynomolgus, rat, dog and pig monovalent Sema3A domain were used as analytes in a concentration series from […] in multi cycle kinetics mode or in 100 nM for binding analysis only. The sensor surface was regenerated with glycine pH 2.0 after each antigen injection. Obtained sensorgrams were double referenced (subtraction of reference flow cell signal and buffer injection) and were fitted to a 1:1 Langmuir binding model to derive kinetic data using the Biacore T200 Evaluation software.
# [4] = target: T2, Human Semaphorin3A-Fc (R&D Systems), TPP-13211 (human); experiment: competition ELISA on coated TPP-13211, competitor biotinylated TPP-15374
# T2 construct: R&D Systems 1250-S3; also called recombinant human Sema3A-Fc chimera
# Experimental: For screening in a competition ELISA setup, human Sema3a (TPP-13211) was coated onto 384-well plates (Greiner bio-one, 781077) with a concentration of 0.5 μg/ml in coating buffer (Carbonate-Basis pH 9.6, Candor 121125) over night at 10° C. After washing the plates 3 times with 50 μl PBS 0.05% Tween the plates were blocked with 50 μl Smart Block® (Candor 113500) for 1 h at 20° C. and washed again 3 times as described.
# Subsequently, 20 μl of pre-mixed antibody solution was added to the plates and incubate for 18 h at 10° C. […] The total concentration of the added antibody solution was 0.25 μg/ml. During the incubation time the antibodies bound to the plates in a competitive manner as they compete for the same epitope on the human Sema3A protein.
# After subsequent washing with 50 μl PBS 0.05% Tween for 3 times, 20 μl of a Streptavidin-HRP solution (R&D Systems, DY998, 1:200 in PBS 0.05% Tween 10% Smart Block) were added and incubated for 1 h and 20° C. followed by subsequent washing 3 times with 50 μl PBS 0.05% Tween and addition of 20 μl Amplex Red solution (Invitrogen A12222, 1:1000 in NaP-buffer 50 mM pH7.6 with 1:10000 of 30% H2O2). After a final incubation for 20 min at 20° C. the signal was determined using an emission wavelength of 595 nm and excitation of 530 nm.
# [5] = target: T1, Human Semaphorin3A-Sema Domain, …; experiment: SPR, 100 nM TPP-19068, binding experiment
# Experimental: as §1
# T2 sequence (chain, as listed by the source limits assumed): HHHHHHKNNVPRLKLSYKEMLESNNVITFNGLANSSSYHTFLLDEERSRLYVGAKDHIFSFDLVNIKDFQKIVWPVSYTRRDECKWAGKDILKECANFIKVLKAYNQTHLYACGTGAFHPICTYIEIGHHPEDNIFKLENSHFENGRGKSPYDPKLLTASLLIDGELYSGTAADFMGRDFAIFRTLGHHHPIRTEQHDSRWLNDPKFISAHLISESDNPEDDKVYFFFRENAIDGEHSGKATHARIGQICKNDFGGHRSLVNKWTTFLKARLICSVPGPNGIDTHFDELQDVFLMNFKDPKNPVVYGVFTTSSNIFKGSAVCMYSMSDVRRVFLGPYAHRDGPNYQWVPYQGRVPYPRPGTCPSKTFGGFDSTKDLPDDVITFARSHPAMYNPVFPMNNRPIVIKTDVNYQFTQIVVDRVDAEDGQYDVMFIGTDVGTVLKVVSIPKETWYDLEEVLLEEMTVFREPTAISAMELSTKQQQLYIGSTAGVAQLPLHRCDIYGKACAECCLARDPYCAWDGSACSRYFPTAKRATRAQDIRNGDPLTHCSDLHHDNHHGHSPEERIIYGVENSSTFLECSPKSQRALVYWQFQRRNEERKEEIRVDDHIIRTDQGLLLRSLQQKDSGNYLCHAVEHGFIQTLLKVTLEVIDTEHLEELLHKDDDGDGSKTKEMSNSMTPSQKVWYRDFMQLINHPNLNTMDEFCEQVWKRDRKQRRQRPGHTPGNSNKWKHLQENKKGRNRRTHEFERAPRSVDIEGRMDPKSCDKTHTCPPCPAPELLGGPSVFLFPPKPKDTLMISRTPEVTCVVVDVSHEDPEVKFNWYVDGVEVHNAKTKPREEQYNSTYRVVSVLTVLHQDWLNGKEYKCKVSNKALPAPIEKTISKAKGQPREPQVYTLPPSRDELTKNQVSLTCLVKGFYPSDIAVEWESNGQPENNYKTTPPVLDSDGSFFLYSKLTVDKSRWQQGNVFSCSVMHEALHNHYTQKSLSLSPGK
"EC50 [nM], MCM assay [1] [nM]","EC50 (nM), GCC assay [2] [nM]",Kd [3] [nM],VAL norm to TPP-9809 (1 to 1 ratio) [4],VAL norm to TPP-9809 (1 to 5 ratio) [4],Kd [5] [nM],Binder
42.9,243,–,–,–,–,"TPP-15051 (antibody, mouse IgG1) heavy: EVQLLESGGGLVQPGGSLRLSCAASGFTFSSYPMGWVRQAPGKGLEWVAGIDDDGDSDTRYAPAVKGRATISRDNSKNTVYLQMNSLRAEDTAVYYCAKHTGIGANSAGSIDAWGQGTLVTVSSAKTTPPSVYPLAPGSAAQTNSMVTLGCLVKGYFPEPVTVTWNSGSLSSGVHTFPAVLQSDLYTLSSSVTVPSSTWPSETVTCNVAHPASSTKVDKKIVPRDCGCKPCICTVPEVSSVFIFPPKPKDVLTITLTPKVTCVVVDISKDDPEVQFSWFVDDVEVHTAQTQPREEQFNSTFRSVSELPIMHQDWLNGKEFKCRVNSAAFPAPIEKTISKTKGRPKAPQVYTIPPPKEQMAKDKVSLTCMITDFFPEDITVEWQWNGQPAENYKNTQPIMDTDGSYFVYSKLNVQKSNWEAGNTFTCSVLHEGLHNHHTEKSLSHSPGK light: SYELTQPPSVSVSPGQTARITCSGGGSYTGSYYYGWYQQKPGQAPVTVIYYNNKRPSDIPERFSGSLSGTTNTLTISGVQAEDEADYYCGSADNSGDAFGTGTKVTVLGQPKSSPSVTLFPPSSEELETNKATLVCTITDFYPGVVTVDWKVDGTPVTQGMETTQPSKQSNNKYMASSYLTLTARAWERHSSYSCQVTHEGHTVEKSLSRADCS"
–,–,0.049,0.39,0.23,–,"TPP-25655 (antibody, human IgG1, lambda, V domains shown) VH: EVQLLESGGGLVQPGGSLRLSCAASGFDFSSYEMNWVRQAPGKGLEWVSGISWNSGWIDYADSVKGRFTISRDNSKNTLYLQMNSLRAEDTAVYYCARSGYSSSWFDPDFDYWGQGTLVTVSS VL: QSVLTQPPSVSGAPGQRVTISCTGSSSNIGAGYDVHWYQQLPGTAPKLLIYGASNRPSGVPDRFSGSKSGTSASLAITGLQAEDEADYYCSSYEGPNPYVVFGGGTKLTVLG"
–,–,0.052,0.49,0.18,–,"TPP-26111 (antibody, human IgG1, lambda, V domains shown) VH: EVQLLESGGGLVQPGGSLRLSCAASGFTFDSYEMNWVRQAPGKGLEWVSGISWNSGWIDYADSVKGRFTISRDNSKNTLYLQMNSLRAEDTAVYYCARSGYSSSWFDPDFDYWGQGTLVTVSS VL: QSVLTQPPSVSGAPGQRVTISCTGSSSNIGAGYDVHWYQQLPGTAPKLLIYGNSNRPSGVPDRFSGSKSGTSASLAITGLQAEDEADYYCSSYAGPNPYVVFGGGTKLTVLG"
–,–,–,–,–,0.35,"TPP-31357 (Fab, V domains shown, Fab heavy chain entry carries myc and His tags; also called Fab of 3H4 Univ Ramot) V domain 1: EVQLLESGGGLVQPGGSLRLSCAASGFTFRSYAVHWVRQAPGKGLEWVSSTEGSGVGTSYTDSVKGRFTISRDNSKNTLYLQMNSLRAEDTAVYYCARMLGGGNPLDYLDYWGQGTLVTVSS V domain 2: QSVLTQPPSASGTPGQRVTISCSGSSSNLGEGYDVHWYQQLPGKAPKLLIYYSDFRPSGVSDRFSGSKSGTSASLAISGLQSEDEADYYCAAWDDSLSSQVFGGGTQVTVLG"
